Reference: paper PMC5459593 (2017)

What was measured:
Notch1(11-12) EGF11-12 = target: T1, Notch1(11-12) EGF11-12 (Rattus norvegicus, UniProt Q07008); experiment: SPR
T1 chain: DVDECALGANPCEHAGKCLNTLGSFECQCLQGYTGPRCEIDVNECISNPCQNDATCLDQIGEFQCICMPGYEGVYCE

Notch1(8-12) EGF8-12 = target: T2, Notch1(8-12) EGF8-12 (Rattus norvegicus, UniProt Q07008); experiment: SPR
T2 chain: LLCLT

- Kd (Notch1(11-12) EGF11-12): 12.8 µM
- Kd (Notch1(8-12) EGF8-12): 9.7 µM
B1: DLL4(N-3) N-EGF3 (protein)
chain: SGIFQLRLQEFANERGMLANGRPCEPGCRTFFRICLKHYQATFSEGPCTFGNVSTPVLGTNSFVIRDKNSGSGRNPLQLPFNFTWPGTFSLNIQAWHTPGDDLRPETSPGNSLISQIIIQGSLAVGKNWKSDEQNNTLTRLRYSYRVVCSDNYYGDSCSRLCKKRDDHFGHYECQPDGSLSCLPGWTGKYCDQPICLSGCHEQNGYCSKPDECNCRPGWQGPLCNECIPHNGCRHGTCTIPWQCACDEGWGGLFCDQDLNYCTHHSPCKNGSTCSNSGPRGYTCTCLPGYTGEHCE
